These results are taken from the Immune Epitope Database (IEDB).

Among the targets are HLA-A*03:01; HLA-A*11:01; HLA-A*31:01; HLA-A*33:01; HLA-A*68:01.
Common to all, as to experiment: IEDB peptide-MHC binding, purified MHC/competitive/radioactivity; filed as Kd, often an IC50 or EC50 that approximates it; ≥ and ≤ were set here for values at or beyond the usual limits of such assays
The mark [1] stands for this setting: source organism: Vaccinia virus WR.
The mark [2] stands for this setting: source organism: SARS coronavirus Tor2.
The mark [3] stands for this setting: source organism: Dengue virus 2 Jamaica/1409/1983.
[4] abbreviates: source organism: Mammarenavirus juninense.
[5] abbreviates: source organism: Dengue virus 1 Brazil/97-11/1997.
Where [6] appears, read: source organism: Dengue virus 4 Philippines/H241/1956.
Where [7] appears, read: source organism: Dengue virus 1 Singapore/S275/1990.
Where [8] appears, read: source organism: Dengue virus 3 Martinique/1243/1999.

Turning to SLFYTFAISY, the Kd with HLA-A*03:01 (setting [1]) was 0.00362 µM; with HLA-A*11:01 (setting [1]), 0.00918 µM; in the experiment with HLA-A*31:01 (setting [1]), 5.78 µM; with HLA-A*33:01 (setting [1]) it was ≥ 31.8 µM; with HLA-A*68:01 (setting [1]), 1.32 µM.

In the case of NIISRTRLY, the Kd in the experiment with HLA-A*03:01 (setting [1]) was 0.375 µM; in the experiment with HLA-A*11:01 (setting [1]), 1.02 µM; in the experiment with HLA-A*31:01 (setting [1]) it was 3.91 µM; with HLA-A*33:01 (setting [1]) it was 10.2 µM; with HLA-A*68:01 (setting [1]), 0.879 µM.

On to FLIGANYLGK, for which the Kd in the experiment with HLA-A*03:01 (setting [2]) was 0.213 µM; with HLA-A*11:01 (setting [2]), 0.543 µM; in the experiment with HLA-A*31:01 (setting [2]), 3.72 µM; with HLA-A*33:01 (setting [2]) it was ≥ 34 µM; in the experiment with HLA-A*68:01 (setting [2]), 0.0513 µM.

For the sequence TAVAPSMTMR, the Kd with HLA-A*68:01 (setting [3]) was found to be 0.0188 µM.

As to YSYATHHDK, the Kd with HLA-A*03:01 (setting [2]) is 0.0164 µM; with HLA-A*11:01 (setting [2]), 0.0305 µM; with HLA-A*31:01 (setting [2]), 3.47 µM; with HLA-A*33:01 (setting [2]), ≥ 26.2 µM; with HLA-A*68:01 (setting [2]), 0.0163 µM.

For the sequence TGINENYAK, the dissociation constant Kd with HLA-A*03:01 (setting [4]) was ≥ 78 µM; with HLA-A*11:01 (setting [4]), 1.53 µM; with HLA-A*31:01 (setting [4]), ≥ 53.4 µM; with HLA-A*33:01 (setting [4]), ≥ 77.7 µM; in the experiment with HLA-A*68:01 (setting [4]), 0.998 µM.

On to LMHPDFCKNR, for which the Kd was 13.6 µM with HLA-A*03:01 (setting [1]); ≥ 24.5 µM with HLA-A*11:01 (setting [1]); 0.0169 µM with HLA-A*31:01 (setting [1]); 0.254 µM with HLA-A*33:01 (setting [1]); 8.45 µM in the experiment with HLA-A*68:01 (setting [1]).

In the case of RNKKPRICTR, the Kd in the experiment with HLA-A*31:01 (setting [5]) was ≥ 70 µM.

Consider QLLMPLKAPK, for which the Kd stood at 0.1 µM with HLA-A*03:01 (setting [2]); 0.146 µM with HLA-A*11:01 (setting [2]); 0.134 µM with HLA-A*31:01 (setting [2]); 2.29 µM with HLA-A*33:01 (setting [2]); 1.53 µM in the experiment with HLA-A*68:01 (setting [2]).

For VFYRSGTETK, the Kd in the experiment with HLA-A*03:01 (setting [1]) is ≥ 33.8 µM; with HLA-A*11:01 (setting [1]), ≥ 34.1 µM; in the experiment with HLA-A*31:01 (setting [1]), 8.28 µM; with HLA-A*33:01 (setting [1]) it was 6.53 µM; with HLA-A*68:01 (setting [1]) it was ≥ 20.4 µM.

As for ISYCRAFIY, the Kd is 0.00144 µM with HLA-A*03:01 (setting [1]); 0.000358 µM with HLA-A*11:01 (setting [1]); 0.232 µM with HLA-A*31:01 (setting [1]); 3.57 µM with HLA-A*33:01 (setting [1]); 0.00135 µM with HLA-A*68:01 (setting [1]).

As for TLDTMDDMK, the Kd is 11.8 µM with HLA-A*03:01 (setting [1]); 0.466 µM with HLA-A*11:01 (setting [1]); ≥ 77.9 µM with HLA-A*31:01 (setting [1]); ≥ 77.7 µM in the experiment with HLA-A*33:01 (setting [1]); 0.373 µM in the experiment with HLA-A*68:01 (setting [1]).

STAWLCALGK: the Kd came out at 0.0216 µM with HLA-A*03:01 (setting [2]); 0.00035 µM in the experiment with HLA-A*11:01 (setting [2]); 0.271 µM in the experiment with HLA-A*31:01 (setting [2]); 9.43 µM in the experiment with HLA-A*33:01 (setting [2]); 0.0048 µM in the experiment with HLA-A*68:01 (setting [2]).

For ETNMITLLVK, the Kd in the experiment with HLA-A*11:01 (setting [6]) was determined as 1.08 µM.

For QMRTPLHKY, the Kd is 0.141 µM with HLA-A*03:01 (setting [1]); 1.76 µM in the experiment with HLA-A*11:01 (setting [1]); 7.83 µM with HLA-A*31:01 (setting [1]); ≥ 77.7 µM with HLA-A*33:01 (setting [1]); ≥ 77.7 µM with HLA-A*68:01 (setting [1]).

For the sequence TMKAIEKDR, the Kd with HLA-A*03:01 (setting [1]) is ≥ 25.9 µM; with HLA-A*11:01 (setting [1]), 2.62 µM; with HLA-A*31:01 (setting [1]), 0.227 µM; with HLA-A*33:01 (setting [1]), 0.675 µM; with HLA-A*68:01 (setting [1]) it was 0.511 µM.

Turning to NMLNIMNRR, the Kd is 5.35 µM in the experiment with HLA-A*31:01 (setting [7]) and 0.0133 µM with HLA-A*33:01 (setting [7]).

With DSMDVLAEKK, the Kd was 0.343 µM with HLA-A*03:01 (setting [1]); 0.762 µM with HLA-A*11:01 (setting [1]); 1 µM in the experiment with HLA-A*31:01 (setting [1]); 3.54 µM with HLA-A*33:01 (setting [1]); 0.00168 µM with HLA-A*68:01 (setting [1]).

As for TAMAFHLTTR, the Kd amounted to 0.00904 µM with HLA-A*31:01 (setting [3]), 0.0184 µM with HLA-A*33:01 (setting [3]) and 0.00855 µM with HLA-A*68:01 (setting [3]).

Take VLCVKKFYK: the Kd with HLA-A*03:01 (setting [1]) was 0.0252 µM; in the experiment with HLA-A*11:01 (setting [1]), 0.00882 µM; with HLA-A*31:01 (setting [1]), 0.00132 µM; in the experiment with HLA-A*33:01 (setting [1]) it was 0.162 µM; in the experiment with HLA-A*68:01 (setting [1]) it was 0.344 µM.

In the case of QTVNICIFY, the Kd with HLA-A*03:01 (setting [1]) came out at 0.828 µM; with HLA-A*11:01 (setting [1]), 0.0399 µM; in the experiment with HLA-A*31:01 (setting [1]), 0.839 µM; in the experiment with HLA-A*33:01 (setting [1]), 10.5 µM; in the experiment with HLA-A*68:01 (setting [1]), 0.00196 µM.

Regarding TAASAAQRR, the Kd with HLA-A*68:01 (setting [8]) turned out to be 0.0249 µM.

For the sequence KSLVSAGSGK, in the experiment with HLA-A*03:01 (setting [8]), the Kd amounted to 0.00341 µM.

As to KIIHEWCCR, in the experiment with HLA-A*31:01 (setting [5]), the Kd was ≥ 59.3 µM.

For the sequence GTLGLECSPR, the Kd with HLA-A*33:01 (setting [8]) was found to be 0.0236 µM; with HLA-A*68:01 (setting [8]) it was 0.106 µM.

Consider SSKIRWIVER, for which the Kd with HLA-A*31:01 (setting [6]) came to 0.0171 µM; with HLA-A*33:01 (setting [6]), 0.389 µM.

For the sequence TTRLENVMWK, the Kd with HLA-A*11:01 (source organism: Dengue virus 4 Dominica/814669/1981) came to 0.59 µM.

For ISNITTATR, the Kd in the experiment with HLA-A*31:01 (setting [6]) was determined as 0.0727 µM.

Regarding SYTQVCDHR, in the experiment with HLA-A*33:01 (source organism: Dengue virus 1 Nauru/West Pac/1974), the dissociation constant (Kd) was 0.0432 µM.

As for VSIMIEEVMR, the Kd in the experiment with HLA-A*68:01 (setting [5]) amounted to 0.202 µM.

For the sequence GLTSRATWAK, in the experiment with HLA-A*03:01 (setting [3]), the Kd turned out to be 0.0523 µM.

Take LMTLMKGASK: in the experiment with HLA-A*03:01 (setting [6]), the Kd amounted to 0.273 µM.

As to TSIFAGHLK, the Kd with HLA-A*11:01 (setting [8]) came out at 0.0391 µM; in the experiment with HLA-A*68:01 (setting [8]) it was 0.0043 µM.

Take AMAFHLTTR: the Kd with HLA-A*03:01 (setting [3]) was 0.0563 µM; in the experiment with HLA-A*31:01 (setting [3]), 0.00157 µM.

With MKNKAWMVHR, in the experiment with HLA-A*31:01 (setting [8]), the Kd worked out at 0.14 µM.

In the case of TTRLENIMWK, the Kd with HLA-A*11:01 (setting [6]) turned out to be 0.271 µM.

As to RIMQRGLLGR, the Kd with HLA-A*03:01 (setting [7]) was 0.00556 µM; in the experiment with HLA-A*31:01 (setting [7]), 0.00116 µM.

Turning to EGVYRIMQR, the Kd with HLA-A*68:01 (setting [6]) worked out at 0.215 µM.
